Measurements taken from article PMC9508125, “The evolutionary advantage of an aromatic clamp in plant family 3 glycoside exo-hydrolases” (Nature Communications, 2022).

Legend:
[1] = substrate: O=[N+]([O-])c1ccc(O[C@@H]2O[C@H](CO)[C@@H](O)[C@H](O)[C@H]2O)cc1; assay: Steady-state apparent kinetic constants with substrates; format: biochemical, Hordeum vulgare; settings: substance is the substrate, pH 5.25, 30.0 °C
[2] = substrate: OC[C@H]1O[C@@H](O[C@H]2[C@H](O)[C@@H](CO)OC(O)[C@@H]2O)[C@H](O)[C@@H](O)[C@@H]1O; assay: as above; format: biochemical, Hordeum vulgare; settings: substance is the substrate, pH 5.25, 30.0 °C

B1: HvExoI W286F mutant (Hordeum vulgare subsp. vulgare; W311F) (protein)
chain: DYVLYKDATKPVEDRVADLLGRMTLAEKIGQMTQIERLVATPDVLRDNFIGSLLSGGGSVPRKGATAKEWQDMVDGFQKACMSTRLGIPMIYGIDAVHGQNNVYGATIFPHNVGLGATRDPYLVKRIGEATALEVRATGIQYAFAPCIAVCRDPRWGRCYESYSEDRRIVQSMTELIPGLQGDVPKDFTSGMPFVAGKNKVAACAKHFVGDGGTVDGINENNTIINREGLMNIHMPAYKNAMDKGVSTVMISYSSWNGVKMHANQDLVTGYLKDTLKFKGFVISDFEGIDRITTPAGSDYSYSVKASILAGLDMIMVPNNYQQFISILTGHVNGGVIPMSRIDDAVTRILRVKFTMGLFENPYADPAMAEQLGKQEHRDLAREAARKSLVLLKNGKTSTDAPLLPLPKKAPKILVAGSHADNLGYQCGGWTIEWQGDTGRTTVGTTILEAVKAAVDPSTVVVFAENPDAEFVKSGGFSYAIVAVGEHPYTETKGDNLNLTIPEPGLSTVQAVCGGVRCATVLISGRPVVVQPLLAASDALVAAWLPGSEGQGVTDALFGDFGFTGRLPRTWFKSVDQLPMNVGDAHYDPLFRLGYGLTTNATKKY
Km ([1]; other: W286F): 2400 ± 300 µM | kcat ([1]; other: W286F): 1.9 ± 0.1 s⁻¹ | kcat/Km ([1]; other: W286F): 800 ± 10 M⁻¹ s⁻¹ | Km ([2]; other: W286F): 400 ± 40 µM | kcat ([2]; other: W286F): 2.6 ± 0.2 s⁻¹ | kcat/Km ([2]; other: W286F): 5800 ± 400 M⁻¹ s⁻¹

B2: WT HvExoI (Hordeum vulgare subsp. vulgare) (protein)
chain: DYVLYKDATKPVEDRVADLLGRMTLAEKIGQMTQIERLVATPDVLRDNFIGSLLSGGGSVPRKGATAKEWQDMVDGFQKACMSTRLGIPMIYGIDAVHGQNNVYGATIFPHNVGLGATRDPYLVKRIGEATALEVRATGIQYAFAPCIAVCRDPRWGRCYESYSEDRRIVQSMTELIPGLQGDVPKDFTSGMPFVAGKNKVAACAKHFVGDGGTVDGINENNTIINREGLMNIHMPAYKNAMDKGVSTVMISYSSWNGVKMHANQDLVTGYLKDTLKFKGFVISDWEGIDRITTPAGSDYSYSVKASILAGLDMIMVPNNYQQFISILTGHVNGGVIPMSRIDDAVTRILRVKFTMGLFENPYADPAMAEQLGKQEHRDLAREAARKSLVLLKNGKTSTDAPLLPLPKKAPKILVAGSHADNLGYQCGGWTIEWQGDTGRTTVGTTILEAVKAAVDPSTVVVFAENPDAEFVKSGGFSYAIVAVGEHPYTETKGDNLNLTIPEPGLSTVQAVCGGVRCATVLISGRPVVVQPLLAASDALVAAWLPGSEGQGVTDALFGDFGFTGRLPRTWFKSVDQLPMNVGDAHYDPLFRLGYGLTTNATKKY
Km ([1]; other: WT): 2000 ± 150 µM | kcat ([1]; other: WT): 27.7 ± 2.5 s⁻¹ | kcat/Km ([1]; other: WT): 13900 ± 600 M⁻¹ s⁻¹

B3: HvExoI W434Y mutant (Hordeum vulgare subsp. vulgare; W459Y) (protein)
chain: DYVLYKDATKPVEDRVADLLGRMTLAEKIGQMTQIERLVATPDVLRDNFIGSLLSGGGSVPRKGATAKEWQDMVDGFQKACMSTRLGIPMIYGIDAVHGQNNVYGATIFPHNVGLGATRDPYLVKRIGEATALEVRATGIQYAFAPCIAVCRDPRWGRCYESYSEDRRIVQSMTELIPGLQGDVPKDFTSGMPFVAGKNKVAACAKHFVGDGGTVDGINENNTIINREGLMNIHMPAYKNAMDKGVSTVMISYSSWNGVKMHANQDLVTGYLKDTLKFKGFVISDWEGIDRITTPAGSDYSYSVKASILAGLDMIMVPNNYQQFISILTGHVNGGVIPMSRIDDAVTRILRVKFTMGLFENPYADPAMAEQLGKQEHRDLAREAARKSLVLLKNGKTSTDAPLLPLPKKAPKILVAGSHADNLGYQCGGWTIEYQGDTGRTTVGTTILEAVKAAVDPSTVVVFAENPDAEFVKSGGFSYAIVAVGEHPYTETKGDNLNLTIPEPGLSTVQAVCGGVRCATVLISGRPVVVQPLLAASDALVAAWLPGSEGQGVTDALFGDFGFTGRLPRTWFKSVDQLPMNVGDAHYDPLFRLGYGLTTNATKKY
Km ([1]; other: W434Y): 300 ± 30 µM | kcat ([1]; other: W434Y): 1.2 ± 0.1 s⁻¹ | kcat/Km ([1]; other: W434Y): 3500 ± 400 M⁻¹ s⁻¹ | Km ([2]; other: W434Y): 600 ± 100 µM | kcat ([2]; other: W434Y): 2.0 ± 0.1 s⁻¹ | kcat/Km ([2]; other: W434Y): 3300 ± 300 M⁻¹ s⁻¹

B4: HvExoI W434A mutant (Hordeum vulgare subsp. vulgare; W459A) (protein)
chain: DYVLYKDATKPVEDRVADLLGRMTLAEKIGQMTQIERLVATPDVLRDNFIGSLLSGGGSVPRKGATAKEWQDMVDGFQKACMSTRLGIPMIYGIDAVHGQNNVYGATIFPHNVGLGATRDPYLVKRIGEATALEVRATGIQYAFAPCIAVCRDPRWGRCYESYSEDRRIVQSMTELIPGLQGDVPKDFTSGMPFVAGKNKVAACAKHFVGDGGTVDGINENNTIINREGLMNIHMPAYKNAMDKGVSTVMISYSSWNGVKMHANQDLVTGYLKDTLKFKGFVISDWEGIDRITTPAGSDYSYSVKASILAGLDMIMVPNNYQQFISILTGHVNGGVIPMSRIDDAVTRILRVKFTMGLFENPYADPAMAEQLGKQEHRDLAREAARKSLVLLKNGKTSTDAPLLPLPKKAPKILVAGSHADNLGYQCGGWTIEAQGDTGRTTVGTTILEAVKAAVDPSTVVVFAENPDAEFVKSGGFSYAIVAVGEHPYTETKGDNLNLTIPEPGLSTVQAVCGGVRCATVLISGRPVVVQPLLAASDALVAAWLPGSEGQGVTDALFGDFGFTGRLPRTWFKSVDQLPMNVGDAHYDPLFRLGYGLTTNATKKY
Km ([1]; other: W434A): 500 ± 100 µM | kcat ([1]; other: W434A): 9.5 ± 0.7 s⁻¹ | kcat/Km ([1]; other: W434A): 17600 ± 1800 M⁻¹ s⁻¹ | Km ([2]; other: W434A): 2100 ± 200 µM | kcat ([2]; other: W434A): 2.6 ± 0.2 s⁻¹ | kcat/Km ([2]; other: W434A): 1300 ± 100 M⁻¹ s⁻¹

B5: HvExoI W434H mutant (Hordeum vulgare subsp. vulgare; W459H) (protein)
chain: DYVLYKDATKPVEDRVADLLGRMTLAEKIGQMTQIERLVATPDVLRDNFIGSLLSGGGSVPRKGATAKEWQDMVDGFQKACMSTRLGIPMIYGIDAVHGQNNVYGATIFPHNVGLGATRDPYLVKRIGEATALEVRATGIQYAFAPCIAVCRDPRWGRCYESYSEDRRIVQSMTELIPGLQGDVPKDFTSGMPFVAGKNKVAACAKHFVGDGGTVDGINENNTIINREGLMNIHMPAYKNAMDKGVSTVMISYSSWNGVKMHANQDLVTGYLKDTLKFKGFVISDWEGIDRITTPAGSDYSYSVKASILAGLDMIMVPNNYQQFISILTGHVNGGVIPMSRIDDAVTRILRVKFTMGLFENPYADPAMAEQLGKQEHRDLAREAARKSLVLLKNGKTSTDAPLLPLPKKAPKILVAGSHADNLGYQCGGWTIEHQGDTGRTTVGTTILEAVKAAVDPSTVVVFAENPDAEFVKSGGFSYAIVAVGEHPYTETKGDNLNLTIPEPGLSTVQAVCGGVRCATVLISGRPVVVQPLLAASDALVAAWLPGSEGQGVTDALFGDFGFTGRLPRTWFKSVDQLPMNVGDAHYDPLFRLGYGLTTNATKKY
Km ([1]; other: W434H): 2200 ± 200 µM | kcat ([1]; other: W434H): 7.7 ± 0.6 s⁻¹ | kcat/Km ([1]; other: W434H): 3500 ± 400 M⁻¹ s⁻¹ | Km ([2]; other: W434H): 1700 ± 400 µM | kcat ([2]; other: W434H): 51.8 ± 2.0 s⁻¹ | kcat/Km ([2]; other: W434H): 31300 ± 7300 M⁻¹ s⁻¹

B6: HvExoI W286Y mutant (Hordeum vulgare subsp. vulgare; W311Y) (protein)
chain: DYVLYKDATKPVEDRVADLLGRMTLAEKIGQMTQIERLVATPDVLRDNFIGSLLSGGGSVPRKGATAKEWQDMVDGFQKACMSTRLGIPMIYGIDAVHGQNNVYGATIFPHNVGLGATRDPYLVKRIGEATALEVRATGIQYAFAPCIAVCRDPRWGRCYESYSEDRRIVQSMTELIPGLQGDVPKDFTSGMPFVAGKNKVAACAKHFVGDGGTVDGINENNTIINREGLMNIHMPAYKNAMDKGVSTVMISYSSWNGVKMHANQDLVTGYLKDTLKFKGFVISDYEGIDRITTPAGSDYSYSVKASILAGLDMIMVPNNYQQFISILTGHVNGGVIPMSRIDDAVTRILRVKFTMGLFENPYADPAMAEQLGKQEHRDLAREAARKSLVLLKNGKTSTDAPLLPLPKKAPKILVAGSHADNLGYQCGGWTIEWQGDTGRTTVGTTILEAVKAAVDPSTVVVFAENPDAEFVKSGGFSYAIVAVGEHPYTETKGDNLNLTIPEPGLSTVQAVCGGVRCATVLISGRPVVVQPLLAASDALVAAWLPGSEGQGVTDALFGDFGFTGRLPRTWFKSVDQLPMNVGDAHYDPLFRLGYGLTTNATKKY
Km ([1]; other: W286Y): 2000 ± 100 µM | kcat ([1]; other: W286Y): 28.8 ± 2.9 s⁻¹ | kcat/Km ([1]; other: W286Y): 14600 ± 1500 M⁻¹ s⁻¹ | Km ([2]; other: W286Y): 400 ± 40 µM | kcat ([2]; other: W286Y): 20.7 ± 1.7 s⁻¹ | kcat/Km ([2]; other: W286Y): 52600 ± 1500 M⁻¹ s⁻¹

B7: HvExoI W434F mutant (Hordeum vulgare subsp. vulgare; W459F) (protein)
chain: DYVLYKDATKPVEDRVADLLGRMTLAEKIGQMTQIERLVATPDVLRDNFIGSLLSGGGSVPRKGATAKEWQDMVDGFQKACMSTRLGIPMIYGIDAVHGQNNVYGATIFPHNVGLGATRDPYLVKRIGEATALEVRATGIQYAFAPCIAVCRDPRWGRCYESYSEDRRIVQSMTELIPGLQGDVPKDFTSGMPFVAGKNKVAACAKHFVGDGGTVDGINENNTIINREGLMNIHMPAYKNAMDKGVSTVMISYSSWNGVKMHANQDLVTGYLKDTLKFKGFVISDWEGIDRITTPAGSDYSYSVKASILAGLDMIMVPNNYQQFISILTGHVNGGVIPMSRIDDAVTRILRVKFTMGLFENPYADPAMAEQLGKQEHRDLAREAARKSLVLLKNGKTSTDAPLLPLPKKAPKILVAGSHADNLGYQCGGWTIEFQGDTGRTTVGTTILEAVKAAVDPSTVVVFAENPDAEFVKSGGFSYAIVAVGEHPYTETKGDNLNLTIPEPGLSTVQAVCGGVRCATVLISGRPVVVQPLLAASDALVAAWLPGSEGQGVTDALFGDFGFTGRLPRTWFKSVDQLPMNVGDAHYDPLFRLGYGLTTNATKKY
Km ([1]; other: W434F): 600 ± 40 µM | kcat ([1]; other: W434F): 6.6 ± 0.7 s⁻¹ | kcat/Km ([1]; other: W434F): 12700 ± 2100 M⁻¹ s⁻¹ | Km ([2]; other: W434F): 1700 ± 200 µM | kcat ([2]; other: W434F): 17.1 ± 1.6 s⁻¹ | kcat/Km ([2]; other: W434F): 9900 ± 1200 M⁻¹ s⁻¹
